The target of assay [1] is T1, recombinantly-expressed P. aeruginosa flagellin type A (Pseudomonas aeruginosa, UniProt P21184 2-394).
T1 construct: also called PA flagellin type A; PA flagellin A
T1 sequence: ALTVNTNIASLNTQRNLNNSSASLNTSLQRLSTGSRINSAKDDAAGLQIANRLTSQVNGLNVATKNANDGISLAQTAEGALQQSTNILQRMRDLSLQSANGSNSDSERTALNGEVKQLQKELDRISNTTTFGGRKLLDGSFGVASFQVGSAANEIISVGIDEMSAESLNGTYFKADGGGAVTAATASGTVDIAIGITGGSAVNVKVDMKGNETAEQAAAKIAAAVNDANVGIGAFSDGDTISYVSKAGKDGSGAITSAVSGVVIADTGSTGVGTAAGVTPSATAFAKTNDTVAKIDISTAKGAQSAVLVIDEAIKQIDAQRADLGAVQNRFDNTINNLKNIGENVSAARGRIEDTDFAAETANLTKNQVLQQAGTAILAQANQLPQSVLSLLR
The assay can be described thus: ELISA on plates coated with purified flagellin type A. (In general: ELISA stands for enzyme-linked immunosorbent assay.)

Assay [2] addresses T1, recombinantly-expressed P. aeruginosa …. In words: ELISA, plates coated with recombinant flagellin type A (250 ng/well), anti-human Fc-HRP.
Assay [3] shares this target. In words: SPR (ProteOn XPR36), mAb amine-coupled to GLM chip, flagellin as analyte 5-80 nM, 1:1 model.
The target of assay [4] is T2, flagellin type B of P. aeruginosa laboratory strain PA01 (Pseudomonas aeruginosa, UniProt P72151 1-488).
T2 construct: whole, on cells; Tested on whole immobilized or formaldehyde-fixed bacteria (ELISA), in blotted lysate (western blot) and on live bacteria (motility)
T2 sequence: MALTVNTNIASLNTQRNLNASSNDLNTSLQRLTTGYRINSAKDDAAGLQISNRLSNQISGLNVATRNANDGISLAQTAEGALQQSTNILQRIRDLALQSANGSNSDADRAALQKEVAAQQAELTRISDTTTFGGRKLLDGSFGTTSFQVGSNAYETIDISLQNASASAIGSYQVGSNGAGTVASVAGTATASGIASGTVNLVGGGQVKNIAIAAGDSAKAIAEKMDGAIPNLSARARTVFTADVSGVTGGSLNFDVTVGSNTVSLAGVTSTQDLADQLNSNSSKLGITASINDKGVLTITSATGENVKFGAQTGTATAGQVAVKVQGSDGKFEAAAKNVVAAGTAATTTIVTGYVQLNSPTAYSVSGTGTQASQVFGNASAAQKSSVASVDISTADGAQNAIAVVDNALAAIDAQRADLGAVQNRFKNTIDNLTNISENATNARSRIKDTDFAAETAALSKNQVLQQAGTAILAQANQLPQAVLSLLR
In words: immunoblot of P. aeruginosa lysates probed with LST-003, anti-human Fc peroxidase detection. In general terms: Immunoblotting shows a protein as a band on a membrane.

For assay [5], the target named is T2, flagellin type B of P. aeruginosa …. In words: immunoblot of P. aeruginosa lysates probed with LST-001, anti-mouse Fc peroxidase detection.
Assay [6] concerns the target T3, recombinantly-expressed P. aeruginosa flagellin type B (Pseudomonas aeruginosa, UniProt P72151 1-488).
T3 construct: also called PA flagellin type B; PA flagellin B
T3 sequence: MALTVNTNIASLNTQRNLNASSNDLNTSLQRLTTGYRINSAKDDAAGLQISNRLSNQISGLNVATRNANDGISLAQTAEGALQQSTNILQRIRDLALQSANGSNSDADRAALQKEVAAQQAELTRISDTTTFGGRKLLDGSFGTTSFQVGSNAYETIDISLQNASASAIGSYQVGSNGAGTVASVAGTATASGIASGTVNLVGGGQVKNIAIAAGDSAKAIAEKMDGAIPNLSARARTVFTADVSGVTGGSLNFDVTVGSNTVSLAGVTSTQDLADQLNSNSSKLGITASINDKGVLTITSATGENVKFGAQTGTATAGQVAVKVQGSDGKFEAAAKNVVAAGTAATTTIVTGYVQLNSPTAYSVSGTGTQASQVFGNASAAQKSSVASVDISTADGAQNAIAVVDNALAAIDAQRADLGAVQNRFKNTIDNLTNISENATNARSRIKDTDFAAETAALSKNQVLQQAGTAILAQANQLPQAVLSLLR
In words: ELISA on plates coated with purified flagellin type B.

Assay [7] deals with T3, recombinantly-expressed P. aeruginosa …. The assay can be described thus: ELISA, plates coated with recombinant flagellin type B (250 ng/well), anti-human Fc-HRP.
Assay [8] shares this target. The assay can be described thus: SPR (ProteOn XPR36), mAb amine-coupled to GLM chip, flagellin as analyte 5-80 nM, 1:1 model.
In assay [9] the target is T4, flagellin type A of P. aeruginosa laboratory strain PAK (Pseudomonas aeruginosa, UniProt P21184 2-394).
T4 construct: whole, on cells; Tested on whole immobilized or formaldehyde-fixed bacteria (ELISA) and in blotted bacterial lysate (western blot)
T4 sequence: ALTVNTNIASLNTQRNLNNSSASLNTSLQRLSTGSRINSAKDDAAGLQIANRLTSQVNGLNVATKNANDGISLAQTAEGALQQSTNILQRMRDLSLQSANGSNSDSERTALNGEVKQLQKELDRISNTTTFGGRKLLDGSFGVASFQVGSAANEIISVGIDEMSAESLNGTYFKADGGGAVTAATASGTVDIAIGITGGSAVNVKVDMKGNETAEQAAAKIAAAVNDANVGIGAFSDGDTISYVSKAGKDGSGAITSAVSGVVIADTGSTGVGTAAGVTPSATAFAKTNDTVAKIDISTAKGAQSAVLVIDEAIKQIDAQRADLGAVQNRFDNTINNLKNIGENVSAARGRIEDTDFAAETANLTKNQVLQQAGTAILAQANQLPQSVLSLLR
The assay can be described thus: ELISA on whole immobilized bacteria, single point.

Assay [10] deals with T3, recombinantly-expressed P. aeruginosa …. In words: ELISA, plates coated with recombinant flagellin type B at 5 µg/ml, anti-human Fc-HRP.

B1: chimeric mAb LST-003 (antibody, V domains shown)
VH: DVQLQESGPGLVKPSQSLSLPCSVTGYSITSGYYWNWIRQFPGNKLEWMGYIRYDGNNNYNPSLKNRISITHDTSKNQFFLKLNYVTTEDTATYYCARGLQFYFDSWGQGTTLTVSS
VL: DIVMSQSPSSLAVSGGEKVTMSCKSSQSLLNGSYQKHTLAWYQQKPGQSPKLLIYWASTRESGVPDRFTGSGSGTDFTLTISSVKAEDLAVYYCQQYYSYPWTFGGGTKLEIKR
notes: also called chimeric LST-003; chimeric anti-flagella type A antibody
Take B1: in [1], the half-maximal effective concentration (EC50 (read off the curve)) is roughly 0.7 nM. For the same molecule, the EC50 in [2] is roughly 0.065 mg/L. Also, the Kd in assay [3] is 3 nM. Further, in assay [4], the binding result is “no binding (tested: 10 µg/ml)”.

B2: dual-specific chimeric mAb LST-010 (bispecific antibody)
heavy: not shown
light: DIVMSQSPSSLAVSGGEKVTMSCKSSQSLLNGSYQKHTLAWYQQKPGQSPKLLIYWASTRESGVPDRFTGSGSGTDFTLTISSVKAEDLAVYYCQQYYSYPWTFGGGTKLEIKR
notes: also called dual-specific LST-010 mAb; not shown: human light constant domain (CL)
In the case of B2, the concentration for a half-maximal effect (EC50 (read off the curve)) in assay [1] was roughly 0.9 nM.

B3: mouse monoclonal antibody LST-001 (antibody, V domains shown)
VH: DVQLQESGPGLVKPSQSLSLPCSVTGYSITSGYYWNWIRQFPGNKLEWMGYIRYDGNNNYNPSLKNRISITHDTSKNQFFLKLNYVTTEDTATYYCARGLQFYFDSWGQGTTLTVSS
VL: DIVMSQSPSSLAVSGGEKVTMSCKSSQSLLNGSYQKHTLAWYQQKPGQSPKLLIYWASTRESGVPDRFTGSGSGTDFTLTISSVKAEDLAVYYCQQYYSYPWTFGGGTKLEIKR
notes: Mouse monoclonal antibody; also called mouse LST-001; FA6 IIG5 (ATCC HB9130)
As to B3, in [3], the equilibrium dissociation constant (Kd) amounted to 0.6 nM. For the same molecule, the binding result in [5] is recorded as “no binding (tested: 10 µg/ml)”.

B4: chimeric mAb LST-004 (antibody, V domains shown)
VH: EVMLVESGGGLVKPGGSLKLSCAASGFTFSTFTMSWVRQTPEKRLECVATINGGGGNTYYPDSVKGRFTISRDNAKNNLYLQMSSLRSEDTAFYFCSRLYGIYAMDYWGQGTSVTVSS
VL: DIVMTQSHIFMSTSVGDRVSITCKASQDVGSAVAWYQQKPGQSPKVLIYWTSTRHTGVPDRFAGSGSGTEFTLTISNVQSEDLADYFCQQYSSYPLTFGAGTKLELKR
notes: also called chimeric LST-004
Turning to B4, the 50% effective concentration (EC50 (read off the curve)) in assay [6] was roughly 1 nM. Besides, in [7], the EC50 was roughly 0.3 mg/L. Moreover, the equilibrium dissociation constant (Kd) in assay [8] is 1.3 nM.

B5: mouse monoclonal antibody LST-002 (antibody, V domains shown)
VH: EVMLVESGGGLVKPGGSLKLSCAASGFTFSTFTMSWVRQTPEKRLECVATINGGGGNTYYPDSVKGRFTISRDNAKNNLYLQMSSLRSEDTAFYFCSRLYGIYAMDYWGQGTSVTVSS
VL: DIVMTQSHIFMSTSVGDRVSITCKASQDVGSAVAWYQQKPGQSPKVLIYWTSTRHTGVPDRFAGSGSGTEFTLTISNVQSEDLADYFCQQYSSYPLTFGAGTKLELKR
notes: Mouse monoclonal antibody; also called mouse LST-002; PaF4 IVE5 (ATCC HB9129)
For B5, in assay [9], the binding result is recorded as “no binding (tested: 1:2 dilution, concentration not given)”. For the same molecule, the dissociation constant (Kd) in assay [8] is 0.82 nM.

B6: human monoclonal IgM antibody LST-007 (antibody, V domains shown)
VH: QVRLVQSGTEVKKPGASVRVSCKASGYTFSNYYMYWVRQAPGQGLEWMAMINPSGGSTRYAQKFQGRVTMTRDTSTSTVYMELSSLRSEDTAVYYCARADSGSYFGYWGQGTLVTVSS
VL: DIQLTQSPSFLSASVGDRVPITCRASQGISTHLAWYQQKPGKAPKLLIYAASTLQSGVPSRFSGSGSGTEFTLTISSLQPEDSATYYCQQLKSYPLTFGGGTKVEIKR
notes: Human IgM from an EBV-transformed lymphoblastoid cell line, tested as culture supernatant; also called 20H11 (ATCC CRL9300); human monoclonal IgM anti-flagella type B antibody
With B6, the binding result in assay [9] is reported as “no binding”.

B7: fully human recombinant mAb LST-008 (antibody, V domains shown)
VH: QVRLVQSGTEVKKPGASVRVSCKASGYTFSNYYMYWVRQAPGQGLEWMAMINPSGGSTRYAQKFQGRVTMTRDTSTSTVYMELSSLRSEDTAVYYCARADSGSYFGYWGQGTLVTVSS
VL: DIQLTQSPSFLSASVGDRVPITCRASQGISTHLAWYQQKPGKAPKLLIYAASTLQSGVPSRFSGSGSGTEFTLTISSLQPEDSATYYCQQLKSYPLTFGGGTKVEIKR
notes: Human IgG1 made in CHO-S cells; also called recombinant human LST-008
For B7, the EC50 in assay [10] is roughly 0.01 mg/L. In [8], the equilibrium dissociation constant (Kd) came to 0.94 nM.

Broadly, the EC50 (read off the curve) is the concentration needed to bring the measured effect to its halfway point. In general, EC50 refers to the concentration that produces a half-maximal response. As a reminder, the Kd is the free concentration of one partner at which half of the binding sites on the other are occupied at equilibrium, for simple one-to-one binding.

Values taken from patent US20130096282A1 (LOSTAM BIOPHARMACEUTICALS, published 2013).
